The source of these data is paper PMC6715450 (Nature, 2019).

In the assay the target is human apo-Calmodulin (cryo-EM complex) (human, UniProt P0DP23). The experiment in a line: cryo-EM structure.

B1: full-length SidJ (cryo-EM complex) (enzyme)
chain: MFGFIKKVLDFFGVDQSEDNPSETAVETTDVSTKIKTTDTTQEESSVKTKTVVPTQPGGSVKPETIAPDQQKKHQIKTETTTSTTKQKGPKVTLMDGHVKQYYFARRGETSTHDTSLPPPVKVLSGRSIPLKEIPFEATRNELVQIYLTSIDKLIKSNKLNSIPSQQIASHYLFLRSLANSETDGIKKNQILSLAKPLGTYLASKEPHVWKMINELIEKSEYPIIHYLKNNRAHSNFMLALIHEYHKEPLTKNQSAFVQKFRDSSVFLFPNPIYTAWLAHSYDEDSSFNPMFRERLSTNFYHSTLTDNLLLRTEPKEVTLSSEHHYKKEKGPIDSSFRYQMSSDRLLRIQGRTLLFSTPQNDVVAVKVQKKGEPKSTLEEEFEMADYLLKHQRRLDVHSKLPQPLGQYSVKKSEILEISRGSLDFERFKTLIDDSKDLEVYVYKAPQSYFTYLHDKNQDLEDLTASVKTNVHDLFVLLREGIVFPQLADIFHTHFGEDEREDKGRYQALVQLLNVLQFQLGRIDKWQKAVEYVNLRSSGLADLGDSLPITSLFTSSDFTKHYFSELLTGGYHPTFFDKSSGTANSLFTGKRRLFGNYLYLNTIAEYLLVIQLTLGSYGDKVTRDMMDKPKKEAVWRELANVMFTSCAEAIHIMTGIPQSRALTLLKQRANIEKHFRQTQFWMTPDYSKLDEDTLQMEQYSIYSGEPEYEFTDKLVSGVGLSVDGVHQDLGGYNRESPLRELEKLLYATVTLIEGTMQLDKEFFKQLEQVEKILSGEIKTDANSCFEAVAQLLDLARPGCHFQKRLVLSYYEEAKLKYPSAPTDAYDSRFQVVARTNAAITIQRFWREARKNLSEKSDIDSEKPESERTTDKRL
As to B1, the binding result is recorded as “binds”.
